Experiment [1] has as its target T1, Recombinant human HER2 (human, UniProt P04626 23-652).
T1 construct: extracellular domain; Analyte of the SPR assays; also called HER2 ECD; ECD2 of HER2
The experiment can be described thus: SPR, 25 C; Ka ratio to WT v10013.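 Also: constructs captured via anti-human Fc on CM5 chip, HER2 ECD as analyte in duplicate dilutions, sensorgrams globally fit to 1:1 Langmuir model on Biacore T200.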

The target of experiment [2] is T1, Recombinant human HER2. Kind of experiment: calculated from the SPR Ka ratio to WT v10013.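 Also: SPR at 25 °C with constructs captured on an anti-human Fc chip and HER2 extracellular domain as analyte, kinetics fitted to a 1:1 Langmuir model.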
Procedure: (§1) The affinity towards HER2 ECD of the samples was measured by SPR on a Biacore T200 as follows. Between 2000 and 4000 RU of anti-human Fc injected at concentration between 5 and 10 μg/ml was immobilized on a CM5 chip using standard amine coupling. Antigen-binding constructs were captured on the anti-human Fc (injected at concentration at 0.51 microg/mL in PBST, 1 min at 10 microl/min) at response levels ranging from 120-270 RU. […] HER2 dilutions were analyzed in duplicates. Sensograms were fit globally to a 1: 1 Langmuir binding model, using the software provided with the Biacore T200. All experiments were conducted at 25° C.
The target in experiment [3] is T1, Recombinant human HER2. Kind of experiment: SPR at 25 C of the OA variant, equilibrium association constant.
Procedure: as §1
Experiment [4] addresses T1, Recombinant human HER2. Described as above. This is another data set of the same source.
Procedure: as §1
Experiment [5] deals with T1, Recombinant human HER2. Kind of experiment: SPR at 25 C of the OA variant, logarithm of the association constant.
Procedure: as §1
For experiment [6], the target named is T1, Recombinant human HER2. Described as above. This is another data set of the same source.
Procedure: as §1
The target in experiment [7] is T1, Recombinant human HER2. The experiment can be described thus: SPR, Biacore T200, 25 C; variant captured on anti-human Fc, HER2 flowed.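 Also: HER2 extracellular domain analyte run as duplicate dilutions over amine-coupled anti-Fc on a CM5 chip, rates from global sensorgram fitting with a 1:1 Langmuir model.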

The values below come from patent US20180273635A1 (Zymeworks, published 2018).

Where two headings read alike, the source gives them in different places.

B1: Variant 14043 (antibody, human IgG1, kappa)
heavy: EVQLVESGGGLVQPGGSLRLSCAASGFTFQDYTMDWVRQAPGKGLEWVADVNPNSGGSIYNQRFKGRFTLSVDRSWNTLYLQMNSLRAEDTAVYYCARNLGPSFYFDYWGQGTLVTVSSASTKGPSVFPLAPSSKSTSGGTAALGCLVKDYFPEPVTVSWNSGALTSGVHTFPAVLQSSGLYSLSSVVTVPSSSLGTQTYICNVNHKPSNTKVDKKVEPKSCDKTHTCPPCPAPELLGGPSVFLFPPKPKDTLMISRTPEVTCVVVDVSHEDPEVKFNWYVDGVEVHNAKTKPREEQYNSTYRVVSVLTVLHQDWLNGKEYKCKVSNKALPAPIEKTISKAKGQPREPQVYVYPPSRDELTKNQVSLTCLVKGFYPSDIAVEWESNGQPENNYKTTPPVLDSDGSFALVSKLTVDKSRWQQGNVFSCSVMHEALHNHYTQKSLSLSPG
light: not shown
chain: not shown
notes: OA (one-armed) format; clones 8775, 7919, 4372; also called v14043
In the case of B1, the “Ka, mut/Ka, WT” value in the experiment with Recombinant human HER2 [1] is ~102 fold. In the experiment with Recombinant human HER2 [2], the ΔΔG is -2.7 kcal/mol. In addition, the Ka with Recombinant human HER2 [3] turned out to be 5.3e+09 M⁻¹. The Ka with Recombinant human HER2 [4] is 5.3e+09 M⁻¹. Besides, in the experiment with Recombinant human HER2 [5], the “Log Ka” value is 9.7. The “Log Ka” value with Recombinant human HER2 [6] was found to be 9.7. Moreover, in the experiment with Recombinant human HER2 [7], the dissociation constant Kd (usually the constant that tells how readily two partners part at equilibrium) was ~0.19 nM; the koff (as a rule, the first-order rate constant of dissociation) is ~1.4e-05 s⁻¹; the kon – broadly, the second-order rate constant of association – stood at 73000 M⁻¹ s⁻¹.

B2: Variant 14050 (antibody, human IgG1, kappa)
heavy: EVQLVESGGGLVQPGGSLRLSCAASGFTFQDYTMDWVRQAPGKGLEWVADVNPNSGGSIYNQRFKGRFTLSVDRSKNTLYLQMNSLRAEDTAVYYCARNLGPWFYFDYWGQGTLVTVSSASTKGPSVFPLAPSSKSTSGGTAALGCLVKDYFPEPVTVSWNSGALTSGVHTFPAVLQSSGLYSLSSVVTVPSSSLGTQTYICNVNHKPSNTKVDKKVEPKSCDKTHTCPPCPAPELLGGPSVFLFPPKPKDTLMISRTPEVTCVVVDVSHEDPEVKFNWYVDGVEVHNAKTKPREEQYNSTYRVVSVLTVLHQDWLNGKEYKCKVSNKALPAPIEKTISKAKGQPREPQVYVYPPSRDELTKNQVSLTCLVKGFYPSDIAVEWESNGQPENNYKTTPPVLDSDGSFALVSKLTVDKSRWQQGNVFSCSVMHEALHNHYTQKSLSLSPG
light: not shown
chain: not shown
notes: OA (one-armed) format; clones 8780, 7919, 4372; also called v14050
In the case of B2, the “Ka, mut/Ka, WT” value in the experiment with Recombinant human HER2 [1] is 12 fold. In addition, the ΔΔG with Recombinant human HER2 [2] was -1.5 kcal/mol. Besides, the Ka with Recombinant human HER2 [3] and in the experiment with Recombinant human HER2 [4] was 6.2e+08 M⁻¹ throughout. The “Log Ka” value in the experiment with Recombinant human HER2 [5] and with Recombinant human HER2 [6] was 8.8 in each case. In addition, the Kd in the experiment with Recombinant human HER2 [7] was 1.6 nM. Further, in the experiment with Recombinant human HER2 [7], the koff turned out to be 7.4e-05 s⁻¹. In addition, in the experiment with Recombinant human HER2 [7], the on-rate (kon) came to 46000 M⁻¹ s⁻¹.

B3: Variant 14055 (antibody, human IgG1, kappa)
heavy: EVQLVESGGGLVQPGGSLRLSCAASGFTFQDYTMDWVRQAPGKGLEWVADVNPNSGGSIYNQRFKGRFTLSVDRSWNTLYLQMNSLRAEDTAVYYCARNLGPWFYFDYWGQGTLVTVSSASTKGPSVFPLAPSSKSTSGGTAALGCLVKDYFPEPVTVSWNSGALTSGVHTFPAVLQSSGLYSLSSVVTVPSSSLGTQTYICNVNHKPSNTKVDKKVEPKSCDKTHTCPPCPAPELLGGPSVFLFPPKPKDTLMISRTPEVTCVVVDVSHEDPEVKFNWYVDGVEVHNAKTKPREEQYNSTYRVVSVLTVLHQDWLNGKEYKCKVSNKALPAPIEKTISKAKGQPREPQVYVYPPSRDELTKNQVSLTCLVKGFYPSDIAVEWESNGQPENNYKTTPPVLDSDGSFALVSKLTVDKSRWQQGNVFSCSVMHEALHNHYTQKSLSLSPG
light: not shown
chain: not shown
notes: OA (one-armed) format; clones 8784, 7919, 4372; also called v14055
Take B3: the “Ka, mut/Ka, WT” value with Recombinant human HER2 [1] is ~77 fold. In addition, in the experiment with Recombinant human HER2 [2], the ΔΔG was -2.6 kcal/mol. Further, the Ka in the experiment with Recombinant human HER2 [3] came to 4.7e+09 M⁻¹. Further, the Ka in the experiment with Recombinant human HER2 [4] turned out to be 4.7e+09 M⁻¹. The “Log Ka” value in the experiment with Recombinant human HER2 [5] was found to be 9.7. Also, in the experiment with Recombinant human HER2 [6], the “Log Ka” value was determined as 9.7. Further, in the experiment with Recombinant human HER2 [7], the Kd was ~0.21 nM, the off-rate constant (koff) is ~1.6e-05 s⁻¹ and the association rate constant (kon) worked out at 73000 M⁻¹ s⁻¹.
